B1: B8-IgG1 (antibody, V domains shown)
VH: EVQLVQSGAEVKKPGSSVKVSCKASGGTFSNYGISWVRQAPGQGLEWMGRILPTFGTANSAQKFQGRVTITADESTGTAYMELRSLRSEDTAVYYCAKEGLAFLGYGMDVWGQGTTVTVSS
VL: EIVLTQSPGTLSLSPGERATLSCRASQSVSSYLAWYQQKPGQAPRLLIYDASNRATGIPARFIGSGSGTDFTLTISSLEPEDFAVYFCQQRSNWPLTFGGGTKVEIK
B2: B8-dIgA2 (antibody, V domains shown)
VH: B1 VH
VL: B1 VL
B3: B8-mIgA1 (antibody, V domains shown)
VH: B1 VH
VL: B1 VL
B4: B8-mIgA2 (antibody, V domains shown)
VH: B1 VH
VL: B1 VL
B5: B8-dIgA1 (antibody, V domains shown)
VH: B1 VH
VL: B1 VL

target: recombinant RBD derived from SARS-CoV-2 (Sino Biological) (SARS-CoV-2, ancestral (Wuhan-Hu-1) …, UniProt P0DTC2); test: ELISA

Does B1 bind?
Result: binds

Does B2 bind?
Result: binds

Does B3 bind?
Result: binds

Does B4 bind?
Result: binds

Does B5 bind?
Result: binds

From paper doi:10.1101/2021.10.05.463282 (2021)
